Laboratory results reported in patent publication US20210230266A1 (SINGAPORE HEALTH SERVICES PTE, published 2021).
Numbering of substitutions follows the chain as printed.

T1: Human IL-11 (human, UniProt P20809 22-199)
T1 sequence: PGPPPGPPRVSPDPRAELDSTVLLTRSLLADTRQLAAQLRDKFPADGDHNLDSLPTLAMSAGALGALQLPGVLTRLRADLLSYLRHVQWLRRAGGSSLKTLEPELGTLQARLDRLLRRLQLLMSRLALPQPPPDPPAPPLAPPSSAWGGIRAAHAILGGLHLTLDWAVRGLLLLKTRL

T2: Mouse IL-11 (mouse, UniProt P47873 22-199, limits assumed)
T2 construct: also called murine IL-11; recombinant murine IL-11
T2 sequence (looked up): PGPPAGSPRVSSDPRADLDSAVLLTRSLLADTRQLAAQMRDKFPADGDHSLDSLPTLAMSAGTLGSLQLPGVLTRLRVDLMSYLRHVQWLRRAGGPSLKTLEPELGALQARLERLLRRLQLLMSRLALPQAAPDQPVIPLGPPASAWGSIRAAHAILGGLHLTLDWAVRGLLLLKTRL

B1: YU112-H02 (antibody)
chain: QVQLVESGGGVVQPGRSLRLSCAASGFTFSSYGMHWVRQAPGKGLEWVAVISYDGSNKYYADSVKGRFTISRDNSKNTLYLQMNSLRAEDTAVYYCAKLSGPNGVDYWGQGTLVTVSSGSASAPKLEEGEFSEARVQPVLTQPRSVSGSPGQSVTISCTGTSSDVGGYNYVSWYQQHPGKAPKVMIYDVSKRPSGVPDRFSGSKSGNTASLTISGLQAEDEADYYCCSYAGSYTWVFGGGTKLTVL
B2: YU112-D08 (antibody)
chain: QVQLVESGGGVVQPGRSLRLSCAASGFTFSSYGMHWVRQAPGKGLEWVAVISYDGSNKYYADSVEGRFTISRDNSKNTLYLQMNSLRAEDTAVYYCAKIGATDPLDYWGQGTLVTVSSGSASAPKLEEGEFSEARVQSALTQPRSVSGSPGQSVTISCTGTISDVGGYNYVSWYQQHPGKAPKLMIYDVTKRPSGVPDRFSGSKSGNTASLTISGLQAEDEAGYYCSSYAGSYTWVFGGGTELTVL
B3: YU112-G06 (antibody)
chain: B2 chain with V5Q, E65K, P193R, S232G
B4: YU100-A12 (antibody)
chain: B2 chain with E65K, Q137L, S138P, A139V, I162S, T190S, N207D, G223D, E242K
B5: YU100-B06 (antibody)
chain: B2 chain with E65K, G66S, R144A, V154I, I162S, T190S, G223D, S227N, E242K
B6: YU100-A11 (antibody)
chain: B2 chain with Q1E, V5Q, E6Q, E65K, I162S, T190S, G223D, S227C, E242K
B7: YU100-B07 (antibody)
chain: B2 chain with E65K, I156M, I162S, S163R, Q176H, T190S, G215E, G223D, S227C, E242K
B8: YU112-H01 (antibody)
chain: QVQLVESGGGVVQPGRSLRLSCAASGFTFGSYGMHWVRQAPGKGLEWVAVISYDGSNKYYADSVKGRFTISRDNSKNTLYLQMNSLRAEDTAVYYCAKGSYYFDYWGQGTLVTVSSGSASAPKLEEGEFSEARVETTLTQSPGTLSLSPGERATLSCRASQSVSSSYLAWYQQKPGQAPRLLIYGASSRATGIPDRFSGSGSGTDFTLTISSLQPDDFATYYCQQSYSTPTWTFGQGTKVEIK
B9: YU112-F05 (antibody)
chain: EVQLVQSGGGVVQPGRSLRLSCAASGFTFGSYGMHWVRQAPGKGLEWVAVISYDGSNKYYADSVKGRFTISRDNSKNTLYLQMNSLRAEDTAVYYCAKIGATDPLDYWGQGTLVTVSSGSASAPKLEEGEFSEARVQSALTQPRSVSGSPGQSVTISCTGTSSDVGGYNYVSWYQQHPGKAPKLIIYDVNNRPSGVSNRFSASKSGNTASLTISGLQAEDEADYYCNSYTSGSTWVFGGGTKLTVL
B10: YU100-B03 (antibody)
chain: QVQLVQSGGGVVQPGRSLRLSCAASGFTFSSYGMHWVRQAPGKGLEWVAVISYDGSNKYYADSVKGRFTISRDNSKNTLYLQMNSLRAEDTAVYYCAKIGATDPLDYWGQGTLVTVSSGSASAPKLEEGEFSEARVQSVLTQPRSVSGSPGRSVTISCTGTSSDVGGYNYVSWYQQHPGKAPKLTLYDVVKRPSGVPDRYSGSKSGNTASLTISGLQAEDEADYYCCSYAGGYTWVFGGGTKVTVV
B11: YU100-B01 (antibody)
chain: QVQLVQSGGGVVQPGRSLRLSCAASGFTFSSYGMHWVRQAPGKGLEWVAVISYDGSNKYYADSVKGRFTISRDNSKNTLYLQMNSLRAEDTAVYYCAKIGATDPLDYWGQGTLVTVSSGSASAPKLEEGEFSEARVQSALTQPRSVSGSPGQSVTISCTGTNTDVGAYNYVSWYQQYPGKAPKLIIYDVSKRPSGVPDRFSGSKSGNTASLTISGLQAEDEADYYCCSYAGSYSWVFGGGTKLTVL
B12: YU100-B08 (antibody)
chain: EVQLVQSGGGVVQPGRSLRLSCAASGFTFSSYGMHWVRQAPGKGLEWVAVISYDGSNKYYADSVKGRFTISRDNSKNTLYLQMNSLRAEDTAVYYCAKIGATDPLDYWGQGTLVTVSSGSASAPKLEEGEFSEARVQSALTQPASVSGSPGQSITISCTGTSSDVGGYNYVSWYQQHPGKVPRLLIYDVSNRPSGVSTRFSGSKSGNTASLTISGLQGEDEAEYYCSSFTSSTTWVFGGGTKLTVL
B13: YU100-A10 (antibody)
chain: EVQLVESGGGVVQPGRSLRLSCAASGFTFSSYGMHWVRQAPGKGLEWVAVISYDGSNKYYADSVKGRFTISRDNSKNTLYLQMNSLRAEDTAVYYCAKIGATDPLDYWGQGTLVTVSSGSASAPKLEEGEFSEARVLPVLTQPASVSGSPGQSITISCTGTSSDVGAYNYVSWYQQHPGKAPELMIYDVSNRPSGVSNRFSGSKSGNTASLTISGLQPEDEADYYCSSFTTSIAWVFGGGTKLTVL

Target: T1, Human IL-11
Assay: cell-based or functional assay

Row | Binder | MMP2 production, Experiment 1 (human atrial fibroblasts + TGFB1) | MMP2 production, Experiment 2 (human atrial fibroblasts + TGFB1)
1 | B1 | 65.3 ng/mL | 58 ng/mL
2 | B2 | 50.3 ng/mL | 42.5 ng/mL
3 | B3 | 55 ng/mL | 47.8 ng/mL
4 | B4 | 59.5 ng/mL | 50.4 ng/mL
5 | B5 | 47.6 ng/mL | 49.6 ng/mL
6 | B6 | 51.6 ng/mL | 45.7 ng/mL
7 | B7 | 55.9 ng/mL | 47.4 ng/mL
8 | B8 | 51.9 ng/mL | 47.7 ng/mL
9 | B9 | 53.9 ng/mL | 48.5 ng/mL
10 | B10 | 47.3 ng/mL | 46.8 ng/mL
11 | B11 | 52.5 ng/mL | 40 ng/mL
12 | B12 | 55.3 ng/mL | 40.6 ng/mL
13 | B13 | 52.1 ng/mL | 50.1 ng/mL

Target: T1, Human IL-11
Assay: ELISA
Experimental: (§1) The soluble scFv were produced by recombinant expression in E. coli, and analysed for their ability to bind to human IL-11 and murine IL-11 by ELISA. Briefly, the respective antigen was coated to wells of an ELISA plate, the cell culture supernatant containing the respective scFv was added at a 1:2 dilution, and binding was detected.

Row | Binder | hIL11 - average signal
14 | B1 | 0.606
15 | B2 | 0.418
16 | B3 | 0.664
17 | B4 | 0.32
18 | B5 | 0.209
19 | B6 | 0.333
20 | B7 | 0.167
21 | B8 | 1.23
22 | B9 | 0.863
23 | B10 | 0.227
24 | B11 | 0.187
25 | B12 | 0.209
26 | B13 | 0.443

Target: T2, Mouse IL-11
Assay: ELISA
Experimental: as §1

Row | Binder | mIL11 - average signal
27 | B1 | 0.785
28 | B2 | 0.723
29 | B3 | 0.762
30 | B4 | 0.388
31 | B5 | 0.404
32 | B6 | 0.372
33 | B7 | 0.354
34 | B8 | 1.18
35 | B9 | 0.601
36 | B10 | 0.321
37 | B11 | 0.175
38 | B12 | 0.423
39 | B13 | 0.54

Target: T1, Human IL-11
Assay: ELISA on coated recombinant human IL-11 (100 ng/well), scFv-Fc
Experimental: The light chain shuffled anti-IL-11 antibodies were analysed to determine the EC50 for binding to human IL-11 by ELISA according to standard methods. Briefly, wells of microtiter plates were coated with recombinant human IL-11 (100 ng/well), scFv-Fc comprising the VH and VL domains of the clones were added in a dilution series and antibody binding was detected using a polyclonal antibody detection system.

Row | Binder | EC50
40 | B1 | 0.02 µg/mL
41 | B2 | 0.018 µg/mL
42 | B3 | 0.017 µg/mL
43 | B4 | 0.023 µg/mL
44 | B5 | 0.033 µg/mL
45 | B6 | 0.02 µg/mL
46 | B7 | 0.023 µg/mL
47 | B8 | 0.02 µg/mL
48 | B9 | 0.04 µg/mL
49 | B10 | 0.025 µg/mL
50 | B11 | 0.023 µg/mL
51 | B12 | 0.021 µg/mL
52 | B13 | 0.023 µg/mL
